We go through 2 molecules from patent US20210139568A1 (AXON NEUROSCIENCE, published 2021).

The target of test [1] is T1, in vitro phosphorylated human tau 2N4R (human, UniProt P10636 1-758, phosphorylated in vitro with rat brain kinase extract; the phosphorylated sites are not listed).
T1 construct: also called phosphorylated tau 2N4R; 2N4R in vitro phosphorylated
The experiment in a line: immunoblot. Here is the method:
(§1) Adult rat brain (1 g/2.5 ml) was homogenized in kinase buffer (10 mM TRIS-HCl, pH 7.4; 5 mM EGTA, 2 mM DTT; 1 mM PMSF; 2 mM MgCl₂, leupeptin ([…]), pepstatin ([…]), aprotinin ([…])) and after centrifugation at 100,000×g for 30 min at 4° C. the supernatant (kinase extract) was used for the phosphorylation of tau. The phosphorylation reaction was carried out at 37° C. in 10 mM TRIS-HCl, pH 7.4; 5 mM EGTA, 2 mM DTT; 1 mM PMSF; leupeptin (20 μg/ml); pepstatin (20 μg/ml); aprotinin (20μg/ml); 2 mM ATP; 2 mM MgCl₂ and 10 μM okadaic acid. The brain kinase extract (5μl) was added to 50 μl tau solution (1 μM) and reaction was incubated at 37° C. for 24 h. The phosphorylation of tau was analysed by SDS-PAGE and immunoblotting using rabbit anti-serum raised against six recombinant human tau isoforms (Csokova et al., Rapid purification of truncated tau proteins: model approach to purification of functionally active fragments of disordered proteins, implication for neurodegenerative diseases, Protein Expression and Purification, 35:366-372, 2004).
(§2) Soluble tau proteins were diluted with an equal volume of 2×SDS (sodium dodecylsulfate) sample loading buffer (with β-mercaptoethanol) (Laemmli, 1970) and 250 ng of proteins were loaded per lane. […]
For orientation: A western blot detects proteins with antibodies after separation by electrophoresis.

Test [2] concerns the target in vitro phosphorylated tau151-391 (human, UniProt P10636 468-708, phosphorylated in vitro with rat brain kinase extract; the phosphorylated sites are not listed). The experiment in a line: immunoblot. On the procedure: as §1, §2
Test [3] deals with T2, recombinant tau deletion mutant tau 1-242 (human, UniProt P10636 1-559).
T2 construct: Numbered on tau 2N4R; It was the immunogen for DC2E2
In words: hybridoma screening ELISA on coated tau 1-242. Here is the method:
The plates were blocked with 1% nonfat dried milk to reduce nonspecific binding, washed with PBS-0.05% Tween 20, and incubated with 50 μl/well of hybridoma culture supernatant for 1 hr at 37° C. Bound monoclonal antibodies were detected with sheep anti-mouse immunoglobulin (Ig) conjugated with horse radish peroxidase (HRP, DAKO). The reaction was developed with TMB one (Kem-En-Tec Diagnostics) as a peroxidase substrate and stopped with 50 μl of 2 M H₂SO₄. Absorbance at 450 nm was measured using a Powerwave HT (Bio-Tek). Readouts with an absorbance value of at least twice the value of the negative controls (PBS) were considered positive. Positive hybridoma cultures were further subcloned in soft agar according to the procedure described in Kontsekova et al., One-step method for establishing 8-azaguanine-resistant hybridomas suitable for preparation of triomas, J. Immunol. Methods, 145, 247-250 (1991).
(An ELISA detects its analyte on a solid surface through an enzyme-linked reagent.)

Test [4] concerns the target T3, recombinant human tau isoform 2N3R (human, UniProt P10636-5 2-410).
T3 construct: mature
In words: ELISA, coated recombinant tau protein, hybridoma supernatant. On the procedure: (§3) Deletion mutants of human tau protein 2N4R were used for epitope mapping of DC2E2 using ELISA (FIG. 2A). Recombinant human tau isoforms 2N4R, 1N4R, 2N3R, 0N4R, 1N3R, 0N3R and tau deletion mutants were prepared as described in Example 1. Microtiter plates were coated overnight at 37° C. with recombinant tau proteins ([…] in PBS, 50 μl/well). The plates were blocked with PBS-Tween20 (0.1% v/v) to reduce nonspecific binding and were incubated with 50 μl/well of DC2E2 hybridoma culture supernatant, for 1 hr at 37° C. Bound monoclonal antibody was detected with sheep anti-mouse Ig HRP-conjugated (DAKO). The reaction was developed with TMB one solution (Kem-En-Tec Diagnostics) as a peroxidase substrate and stopped with 50 μl of 2M H₂SO₄. Absorbance was measured at 450 nm using a Powerwave HT (Bio-Tek). Readouts with an absorbance value of at least twice the value of the negative controls (PBS) were considered positive.

For test [5], the target named is T4, recombinant human tau isoform 0N4R (human, UniProt P10636-6 2-383).
T4 construct: mature
The description is as above. Here is the method:
as §3

Test [6] concerns the target T5, recombinant human tau isoform 1N3R (human, UniProt P10636-4 2-381).
T5 construct: mature
The description is as above. On the procedure: as §3

The target in test [7] is T6, recombinant human tau isoform 0N3R (human, UniProt P10636-2 2-352).
T6 construct: mature
The test is described as above. Here is the method: as §3

The target of test [8] is recombinant tau deletion mutant tau 31-441 (human, UniProt P10636 31-758). The test is described as above. Here is the method: as §3
Test [9] concerns the target recombinant tau deletion mutant tau 99-441 (human, UniProt P10636 99-758). Described as above. On the procedure: as §3
The target in test [10] is recombinant tau deletion mutant tau 1-226 (human, UniProt P10636 1-543). Described as above. Here is the method:
as §3

For test [11], the target named is recombinant truncated tau151-391 (unphosphorylated) (human, UniProt P10636 468-708). Described as above. On the procedure:
as §3

In test [12] the target is recombinant tau deletion mutant tau 127-441 (human, UniProt P10636 378-758). The description is as above. On the procedure:
as §3

Test [13] deals with T7, recombinant human tau isoform 1N4R (human, UniProt P10636-7 2-412).
T7 construct: mature
The description is as above. On the procedure: as §3

The target of test [14] is recombinant tau deletion mutant tau 1-136 (human, UniProt P10636 1-387). The experiment in a line: ELISA, coated recombinant tau proteins, DC2E2 hybridoma supernatant. Here is the method: as §3
The target of test [15] is recombinant tau deletion mutant tau 221-441 (unphosphorylated) (human, UniProt P10636 538-758). Described as above. On the procedure: as §3
Test [16] concerns the target T8, recombinant tau deletion mutant tau2N4RΔ(134-168) (human, UniProt P10636 1-758).
T8 construct: Tau 2N4R with residues 134-168 deleted; also called tau 2N4R(A134-168)
Described as above. Here is the method:
as §3

Test [17] deals with in vitro phosphorylated tau deletion mutant tau 221-441 (human, UniProt P10636 538-758, phosphorylated in vitro with rat brain kinase extract; sites not listed). In words: immunoblot of in vitro phosphorylated tau deletion mutants.
The target of test [18] is T9, in vitro phosphorylated tau 2N4R point mutant Thr217Ala (human, UniProt P10636 1-758, phosphorylated in vitro with rat brain kinase extract; sites not listed).
T9 construct: also called Thr217A1a
The experiment in a line: immunoblot of in vitro phosphorylated tau 2N4R point mutants. Here is the method: Soluble tau proteins were diluted with an equal volume of 2×SDS (sodium dodecylsulfate) sample loading buffer (with β-mercaptoethanol) (Laemmli, 1970) and 250 ng of proteins were loaded per lane. For insoluble PHF-tau, the pellets were dissolved in 1×SDS-sample loading buffer, in 1/50 volume of the soluble fraction used for the preparation of the insoluble tau fraction. Then, equal volumes of soluble tau and sarkosyl-insoluble tau fractions were used for immunoblotting, which corresponded to 15 μg of total protein in the soluble fraction (see Filipcik et al. 2010). Samples were heated at 95° C. for 5 min, loaded onto 5-20% gradient SDS polyacrylamide gels, and electrophoresed in a Tris-glycine-SDS buffer system for 40 minutes at 25 mA. Proteins were transferred to a polyvinylidene fluoride (PVDF) membrane (1 h at 150 mA in 10 mM CAPS, pH 12). […] The blots were developed with SuperSignal West Pico Chemiluminescent Substrate (Pierce, U.S.A), and the protein signals detected using a LAS3000 imaging system (FUJI Photo Film Co., Japan). The chemiluminescence signal intensities were quantified using AIDA (Advanced Image Data Analyzer, Raytest, Straubenhardt, Germany) software. […]

Sequence of recombinant tau deletion mutant tau 31-441 (P10636 other isoform, or with tags, fused parts or gaps mutant): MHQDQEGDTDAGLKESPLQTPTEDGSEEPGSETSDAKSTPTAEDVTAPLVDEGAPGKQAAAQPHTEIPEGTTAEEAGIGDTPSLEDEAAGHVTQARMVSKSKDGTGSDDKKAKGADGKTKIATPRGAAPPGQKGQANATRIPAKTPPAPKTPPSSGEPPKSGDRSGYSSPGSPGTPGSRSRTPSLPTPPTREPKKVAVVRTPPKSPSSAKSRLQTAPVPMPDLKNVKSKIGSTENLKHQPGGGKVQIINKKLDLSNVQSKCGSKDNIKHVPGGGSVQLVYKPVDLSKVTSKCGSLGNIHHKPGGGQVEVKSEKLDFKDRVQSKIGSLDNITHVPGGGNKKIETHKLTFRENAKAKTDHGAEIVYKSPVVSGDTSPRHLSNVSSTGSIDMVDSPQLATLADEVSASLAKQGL
T5 sequence (P10636 other isoform, or with tags, fused parts or gaps): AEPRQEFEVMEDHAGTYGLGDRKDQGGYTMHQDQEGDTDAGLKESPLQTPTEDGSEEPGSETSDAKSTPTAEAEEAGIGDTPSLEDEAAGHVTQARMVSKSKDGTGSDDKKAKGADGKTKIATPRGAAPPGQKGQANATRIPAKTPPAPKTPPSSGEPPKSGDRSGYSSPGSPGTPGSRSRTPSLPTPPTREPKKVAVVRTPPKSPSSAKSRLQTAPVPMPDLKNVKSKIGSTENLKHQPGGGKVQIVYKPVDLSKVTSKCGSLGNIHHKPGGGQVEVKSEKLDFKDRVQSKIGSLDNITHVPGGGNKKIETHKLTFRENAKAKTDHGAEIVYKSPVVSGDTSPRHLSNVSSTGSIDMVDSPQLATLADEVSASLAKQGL
Sequence of recombinant tau deletion mutant tau 99-441 (P10636 other isoform, or with tags, fused parts or gaps mutant): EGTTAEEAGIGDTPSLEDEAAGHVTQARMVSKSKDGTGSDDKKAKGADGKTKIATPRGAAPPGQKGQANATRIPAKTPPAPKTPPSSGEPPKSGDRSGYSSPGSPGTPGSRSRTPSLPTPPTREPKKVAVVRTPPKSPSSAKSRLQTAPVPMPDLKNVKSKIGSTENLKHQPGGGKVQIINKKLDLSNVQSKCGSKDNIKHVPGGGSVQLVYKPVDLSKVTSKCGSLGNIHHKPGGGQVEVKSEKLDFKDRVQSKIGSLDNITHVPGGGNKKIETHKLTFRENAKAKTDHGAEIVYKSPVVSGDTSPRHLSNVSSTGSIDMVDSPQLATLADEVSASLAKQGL
T3 sequence (P10636 other isoform, or with tags, fused parts or gaps): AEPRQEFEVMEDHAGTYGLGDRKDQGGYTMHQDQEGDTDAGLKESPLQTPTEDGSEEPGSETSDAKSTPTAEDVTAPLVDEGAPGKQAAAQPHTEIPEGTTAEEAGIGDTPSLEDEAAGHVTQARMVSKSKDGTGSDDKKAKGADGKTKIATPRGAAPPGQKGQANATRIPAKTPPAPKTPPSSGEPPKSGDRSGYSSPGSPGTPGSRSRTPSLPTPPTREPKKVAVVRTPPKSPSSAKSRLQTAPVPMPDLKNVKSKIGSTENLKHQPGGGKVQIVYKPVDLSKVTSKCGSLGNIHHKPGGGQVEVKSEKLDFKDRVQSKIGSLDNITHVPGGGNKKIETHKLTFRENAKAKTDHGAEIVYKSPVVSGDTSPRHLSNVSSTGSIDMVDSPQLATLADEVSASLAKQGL
Sequence of recombinant tau deletion mutant tau 1-226 (P10636 other isoform, or with tags, fused parts or gaps mutant): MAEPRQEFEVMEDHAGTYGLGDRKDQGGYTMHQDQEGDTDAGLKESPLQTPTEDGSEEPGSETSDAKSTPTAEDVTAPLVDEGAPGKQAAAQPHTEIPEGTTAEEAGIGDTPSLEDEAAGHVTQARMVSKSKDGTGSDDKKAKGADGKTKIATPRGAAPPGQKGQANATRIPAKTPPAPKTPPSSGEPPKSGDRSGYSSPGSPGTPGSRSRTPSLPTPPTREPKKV
T7 sequence (P10636 other isoform, or with tags, fused parts or gaps): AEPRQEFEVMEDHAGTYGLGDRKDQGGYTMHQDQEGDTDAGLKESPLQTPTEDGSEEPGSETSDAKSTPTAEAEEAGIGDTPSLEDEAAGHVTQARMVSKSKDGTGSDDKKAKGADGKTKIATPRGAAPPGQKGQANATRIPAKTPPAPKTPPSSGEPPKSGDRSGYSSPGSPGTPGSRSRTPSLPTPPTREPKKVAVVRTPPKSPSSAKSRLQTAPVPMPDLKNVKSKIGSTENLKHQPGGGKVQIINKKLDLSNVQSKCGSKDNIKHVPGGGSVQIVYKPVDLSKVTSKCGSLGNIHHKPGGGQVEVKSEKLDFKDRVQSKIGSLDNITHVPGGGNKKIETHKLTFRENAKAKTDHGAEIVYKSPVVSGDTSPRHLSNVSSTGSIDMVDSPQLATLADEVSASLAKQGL
T1 sequence (P10636 other isoform, or with tags, fused parts or gaps limits assumed): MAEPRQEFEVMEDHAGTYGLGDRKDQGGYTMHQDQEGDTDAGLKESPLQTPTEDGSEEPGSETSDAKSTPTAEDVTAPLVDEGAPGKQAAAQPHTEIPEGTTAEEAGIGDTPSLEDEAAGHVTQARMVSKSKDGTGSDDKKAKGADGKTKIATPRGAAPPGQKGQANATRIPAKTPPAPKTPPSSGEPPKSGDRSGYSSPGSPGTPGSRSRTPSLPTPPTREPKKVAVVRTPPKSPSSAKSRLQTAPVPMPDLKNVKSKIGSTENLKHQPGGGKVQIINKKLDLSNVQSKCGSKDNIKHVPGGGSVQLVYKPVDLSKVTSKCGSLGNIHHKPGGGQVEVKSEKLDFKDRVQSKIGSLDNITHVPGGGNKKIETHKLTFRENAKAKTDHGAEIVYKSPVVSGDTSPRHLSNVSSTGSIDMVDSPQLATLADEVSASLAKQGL
T4 sequence (P10636 other isoform, or with tags, fused parts or gaps): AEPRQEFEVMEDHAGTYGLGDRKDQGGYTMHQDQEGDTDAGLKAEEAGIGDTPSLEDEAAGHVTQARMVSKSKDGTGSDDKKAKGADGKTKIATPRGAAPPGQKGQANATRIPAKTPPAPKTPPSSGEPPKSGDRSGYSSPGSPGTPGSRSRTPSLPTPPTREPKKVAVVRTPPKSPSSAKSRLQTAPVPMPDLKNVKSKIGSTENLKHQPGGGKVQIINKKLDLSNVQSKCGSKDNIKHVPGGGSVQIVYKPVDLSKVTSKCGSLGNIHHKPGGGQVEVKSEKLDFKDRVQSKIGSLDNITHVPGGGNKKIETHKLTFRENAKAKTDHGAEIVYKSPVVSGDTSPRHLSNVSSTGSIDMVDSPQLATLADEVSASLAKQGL
T8 sequence (P10636 other isoform, or with tags, fused parts or gaps mutant): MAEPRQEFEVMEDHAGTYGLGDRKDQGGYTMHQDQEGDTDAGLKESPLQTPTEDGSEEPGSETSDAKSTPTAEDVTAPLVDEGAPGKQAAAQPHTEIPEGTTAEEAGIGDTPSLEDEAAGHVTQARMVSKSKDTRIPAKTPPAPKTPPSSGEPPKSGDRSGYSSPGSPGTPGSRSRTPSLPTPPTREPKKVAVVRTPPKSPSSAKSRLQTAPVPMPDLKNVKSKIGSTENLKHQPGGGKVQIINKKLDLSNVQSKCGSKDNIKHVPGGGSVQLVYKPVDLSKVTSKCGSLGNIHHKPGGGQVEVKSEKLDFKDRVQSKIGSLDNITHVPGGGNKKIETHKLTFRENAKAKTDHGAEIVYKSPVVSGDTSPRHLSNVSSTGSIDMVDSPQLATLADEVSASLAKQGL
Sequence of recombinant tau deletion mutant tau 221-441 (unphosphorylated) (P10636 other isoform, or with tags, fused parts or gaps mutant): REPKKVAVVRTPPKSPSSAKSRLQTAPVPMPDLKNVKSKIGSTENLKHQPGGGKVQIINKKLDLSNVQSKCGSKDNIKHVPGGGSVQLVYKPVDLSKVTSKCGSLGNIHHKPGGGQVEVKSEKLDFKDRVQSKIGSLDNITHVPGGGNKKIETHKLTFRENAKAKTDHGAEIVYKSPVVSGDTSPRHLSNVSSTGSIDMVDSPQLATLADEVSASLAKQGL
Sequence of recombinant tau deletion mutant tau 1-136 (P10636 other isoform, or with tags, fused parts or gaps mutant): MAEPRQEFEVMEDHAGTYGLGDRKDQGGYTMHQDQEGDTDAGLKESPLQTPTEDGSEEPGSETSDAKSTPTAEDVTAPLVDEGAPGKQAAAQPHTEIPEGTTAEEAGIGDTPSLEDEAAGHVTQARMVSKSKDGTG
T6 sequence (P10636 other isoform, or with tags, fused parts or gaps): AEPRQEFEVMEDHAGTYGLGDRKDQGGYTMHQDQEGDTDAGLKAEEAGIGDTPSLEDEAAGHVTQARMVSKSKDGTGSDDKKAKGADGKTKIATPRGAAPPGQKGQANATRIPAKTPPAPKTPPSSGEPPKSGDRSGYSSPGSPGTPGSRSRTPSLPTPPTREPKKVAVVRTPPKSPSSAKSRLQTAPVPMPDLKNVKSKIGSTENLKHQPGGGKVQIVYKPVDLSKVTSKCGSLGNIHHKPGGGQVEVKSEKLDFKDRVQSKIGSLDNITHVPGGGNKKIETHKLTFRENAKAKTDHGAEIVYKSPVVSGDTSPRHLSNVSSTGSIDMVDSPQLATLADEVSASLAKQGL
Sequence of recombinant truncated tau151-391 (unphosphorylated) (P10636 468-708 I625L): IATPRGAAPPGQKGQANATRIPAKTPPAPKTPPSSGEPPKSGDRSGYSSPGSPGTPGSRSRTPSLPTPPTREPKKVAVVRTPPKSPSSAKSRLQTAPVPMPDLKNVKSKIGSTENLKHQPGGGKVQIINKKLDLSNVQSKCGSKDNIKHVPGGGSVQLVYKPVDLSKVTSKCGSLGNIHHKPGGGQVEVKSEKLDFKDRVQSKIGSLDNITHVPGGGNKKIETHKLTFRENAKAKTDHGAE

B1: monoclonal antibody DC2E2 (antibody, V domains shown)
VH: EVQLQQSGAELVRPGALVKLSCKASGFNIKDYYMHWVRQRPDQGLEWIGWLDPENDHTIYDPRFQDRANLTADTSSNTAYLQLSSLTSEDTAVYYCSYYKYDDYWGQGTTLTVS
VL: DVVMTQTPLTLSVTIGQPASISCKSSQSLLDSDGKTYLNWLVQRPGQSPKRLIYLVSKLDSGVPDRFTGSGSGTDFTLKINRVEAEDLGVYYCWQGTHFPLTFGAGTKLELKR
notes: Used as hybridoma supernatant or Protein G purified; biotinylated as detector in the digital ELISA
As for B1, the binding result in test [1], in test [2], in [3], in test [4], in test [5] and in test [6] was “binds” each time. In addition, the binding result in test [7], in test [8], in test [9], in test [10], in [11] and in [12] was “binds” throughout. In addition, the binding result was “binds” in [13], “no binding” in test [14], “no binding” in test [15] and “no binding” in test [16].

B2: monoclonal antibody DC2E7 (antibody, mouse IgG2a, V domains shown)
VH: DVQLVESGGGLVQPGGSRKLSCAASGFTFSSFGMHWVRQAPEKGLEWVAYISGDSNTIYYADTVKGRFTISRDNPKNTLFLQMTSLRSEDTAIYYCARTLAYWGQGTLVTVS
VL: DIQMTQSSSSFSVSLGDRVTITCKASEDIYNRLAWYQQTPGNAPSLLISGASGLETGVPSRFSGSGSGRDYTLSITSLQTEDVATYYCLQYWSIPWTFGGGTKLEIKR
notes: also called DC217 (apparent misprint)
Consider B2, for which the binding result in test [17] and in [18] was “no binding” each time.
